Test results reported in publication doi:10.1101/2025.03.04.641395.

How the values were obtained:
[1] = target: ForJ (Streptomyces formicae); test: non-reducing SDS-PAGE
[2] = target: ForJ (Streptomyces formicae); test: mass photometry
[3] = target: ForJ (Streptomyces formicae); test: non-reducing SDS-PAGE; remark: listed apart in the source
[4] = target: ForJ (Streptomyces formicae); test: mass photometry; remark: listed apart in the source

Question: ForJ (natural protein) was tested. Which stoichiometry N [1] did it give?
Answer: Its stoichiometry N is 2.

Question: And the stoichiometry N [2]?
Answer: Its stoichiometry N is 2.

Question: What about the stoichiometry N [3] of the same substance?
Answer: Its stoichiometry N is 4.

Question: What about the stoichiometry N [4] of the same substance?
Answer: Its stoichiometry N is 4.
